The text below walks through data of US20100222559, “NUCLEIC ACID MOLECULE CAPABLE OF BINDING TO RABBIT-DERIVED lgG ANTIBODY” (published 2010).

The subject of data set [1] is rabbit anti-mouse IgG antibody (Oryctolagus cuniculus). Briefly: SPR. To be noted: RNA with 5' A24 extension captured on biotin-dT24 SA chip; 25 C.
The subject of data set [2] is goat IgG (Capra hircus). The data set can be described thus: filter. To be noted: specificity control, 100 nM protein.
The test system of data set [3] is mouse IgG (Mus musculus). The data set can be described thus: filter. To be noted: specificity control, 100 nM protein.
The subject of data set [4] is rabbit anti-mouse IgG antibody (Oryctolagus cuniculus). The data set can be described thus: filter. To be noted: 20 nM RNA, 100 nM protein, 5 mM MgCl2, RT.
In data set [5] the test system is rabbit anti-GST antibody (IgG) (Oryctolagus cuniculus). The data set can be described thus: filter. To be noted: 20 nM RNA, 100 nM protein.
Data set [6] relates to rabbit anti-GST IgG + glutathione-S-transferase (mixture) (Oryctolagus cuniculus / Schistosoma japonicum). Briefly: filter. To be noted: 100 nM GST + 100 nM anti-GST IgG.
Data set [7] concerns the target glutathione-S-transferase (GST) (Schistosoma japonicum, UniProt P08515 P08515:2-218). The data set can be described thus: filter; specificity control, 100 nM protein. To be noted: tags: prepared in laboratory from GE vector; chain copies: 2; label: 32P (filter assay). The protocol: (§1) The RNAs (20 nM) set forth in SEQ ID NOS: 1 to 5, and the materials (100 nM each) shown in “Material List” below, were incubated in a binding buffer, and then, their binding strength was measured in accordance with the methods described in “Radiolabeling” and “Binding Experiment” below.
(§2) The resulting mixture was introduced onto a filter (trade name: MF-membrane filter, manufactured by Millipore) by way of suctioning it with a suction device, and then, the filter was washed with a binding buffer that was 20 times the volume of the mixture. The radiation intensity of the filter obtained in this manner was measured with a Bio-Imaging Analyzer BAS-2500 (using, as an imaging plate, BAS-MS2040 manufactured by Fuji Film Co., Ltd.) manufactured by Fuji Film Co., Ltd. The radiation intensity was visualized with Image Reader (Fuji Film Co., Ltd.), and the obtained data were converted into numerical values with Image Gauge ver. 4.0 (Fuji Film Co., Ltd.).

The target in data set [8] is bovine serum albumin (Bos taurus, UniProt P02769 P02769:25-607). Briefly: filter; specificity control, 100 nM protein; buffer only 0.3%. To be noted: tags: SIGMA; label: 32P (filter assay). The protocol: as §1, §2
Chain of bovine serum albumin (P02769 25-607, one chain of several): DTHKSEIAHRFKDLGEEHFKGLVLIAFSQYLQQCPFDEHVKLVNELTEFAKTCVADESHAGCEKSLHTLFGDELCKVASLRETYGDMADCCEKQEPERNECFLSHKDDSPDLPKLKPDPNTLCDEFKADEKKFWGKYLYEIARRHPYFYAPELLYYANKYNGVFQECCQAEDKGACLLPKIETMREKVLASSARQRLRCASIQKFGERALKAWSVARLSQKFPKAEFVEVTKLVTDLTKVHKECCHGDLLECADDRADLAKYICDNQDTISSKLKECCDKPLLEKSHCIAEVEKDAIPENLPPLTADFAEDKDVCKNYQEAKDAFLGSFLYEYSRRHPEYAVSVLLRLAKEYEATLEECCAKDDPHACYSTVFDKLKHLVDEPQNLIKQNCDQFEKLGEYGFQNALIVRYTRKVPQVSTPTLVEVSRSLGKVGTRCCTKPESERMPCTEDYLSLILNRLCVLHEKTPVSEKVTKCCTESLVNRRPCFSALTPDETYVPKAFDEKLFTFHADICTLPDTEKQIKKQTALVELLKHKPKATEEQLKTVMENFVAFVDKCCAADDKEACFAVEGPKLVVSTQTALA

Chain of glutathione-S-transferase (GST) (P08515 2-218, one chain of several): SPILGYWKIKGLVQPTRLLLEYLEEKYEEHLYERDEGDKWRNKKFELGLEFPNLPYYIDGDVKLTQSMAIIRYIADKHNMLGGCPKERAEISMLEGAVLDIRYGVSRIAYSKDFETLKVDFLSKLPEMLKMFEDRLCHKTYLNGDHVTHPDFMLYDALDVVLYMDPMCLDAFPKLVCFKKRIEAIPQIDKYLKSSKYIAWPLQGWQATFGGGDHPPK

Broadly, the Kd is a measure of binding affinity in units of concentration. For “GGGAGAAUUCCGACCAGAAGCAAAUUGCCGGGCCUUGGAAGCCAAGUCGCUUUCCUCUCUCCUCCUUCUUCU [SEQ ID NO: 3 RNA aptamer]”, in data set [1], the Kd turned out to be 118 nM. Moreover, the binding signal in data set [2] worked out at 1 % bound; in data set [3], 1.8 % bound; in data set [4] it was 20.9 % bound; in data set [5] (buffer only 0.3%), 20.9 % bound; in data set [6], 14.4 % bound.

The molecule “GGGAGAAUUCCGACCAGAAGAAGUUCGAUACGCCGUGGGGUGACGUUGGCUGCCCUUUCCUCUCUCCUCCUUCUUCU [SEQ ID NO: 1 RNA aptamer]” displayed a Kd in data set [1] of 0.013 nM. Moreover, the binding signal in data set [2] worked out at 0.8 % bound; in data set [3], 0.6 % bound; in data set [4] (50 mM HEPES pH 7.4, 150 mM NaCl) it was 19.1 % bound; in data set [5] (buffer only 0.2%) it was 19.1 % bound; in data set [6], 13.6 % bound.

As for “GGGAGAAUUCCGACCAGAAGUUUUUAAACCGCGCCUUGGAAGCGUACGUUGGCCUUUCCUCUCUCCUCCUUCUUCU [SEQ ID NO: 2 RNA aptamer]”, the Kd in data set [1] worked out at 51.5 nM. Further, the binding signal in data set [2] turned out to be 0.7 % bound; in data set [3] it was 0.5 % bound; in data set [4], 24.6 % bound; in data set [5] (buffer only 0.4%), 24.6 % bound; in data set [6], 14.2 % bound.

Molecule “GGGAGAAUUCCGACCAGAAGUUCGAUACGCCGUGGGGUGACGUUGGCUACCUUUCCUCUCUCCUCCUUCUUCU [SEQ ID NO: 5 RNA aptamer]” showed a Kd in data set [1] of 0.0147 nM. In addition, the binding signal in data set [2] stood at 0.3 % bound; in data set [3], 0.5 % bound; in data set [4], 58.1 % bound; in data set [5] (buffer only 0.3%) it was 58.1 % bound; in data set [6], 48.8 % bound.

The molecule “GGGAGAAUUCCGACCAGAAGCGCAAGCCGGCCCUUGGAAGGCUAGUCGGUCUUUCCUCUCUCCUCCUUCUUCU [SEQ ID NO: 4 RNA aptamer]” gave an equilibrium dissociation constant (Kd) in data set [1] of 103 nM. For the same molecule, the binding signal in data set [2] came to 0.3 % bound; in data set [3], 0.5 % bound; in data set [4], 23.4 % bound; in data set [5] (buffer only 0.3%), 23.4 % bound; in data set [6] it was 20.7 % bound.

B1: SEQ ID NO: 2 RNA aptamer (ssRNA)
RNA: GGGAGAAUUCCGACCAGAAGUUUUUAAACCGCGCCUUGGAAGCGUACGUUGGCCUUUCCUCUCUCCUCCUUCUUCU
B1 registered a binding signal in data set [7] of 0.6 % bound.

B2: SEQ ID NO: 3 RNA aptamer (ssRNA)
RNA: GGGAGAAUUCCGACCAGAAGCAAAUUGCCGGGCCUUGGAAGCCAAGUCGCUUUCCUCUCUCCUCCUUCUUCU
As to B2, the binding signal is 1 % bound in data set [8] and 0.6 % bound in data set [7].

B3: SEQ ID NO: 4 RNA aptamer (ssRNA)
RNA: GGGAGAAUUCCGACCAGAAGCGCAAGCCGGCCCUUGGAAGGCUAGUCGGUCUUUCCUCUCUCCUCCUUCUUCU
B3: the binding signal in data set [8] and in data set [7] was 0.4 % bound each time.

B4: SEQ ID NO: 1 RNA aptamer (ssRNA)
RNA: GGGAGAAUUCCGACCAGAAGAAGUUCGAUACGCCGUGGGGUGACGUUGGCUGCCCUUUCCUCUCUCCUCCUUCUUCU
In turn, B4 had a binding signal in data set [7] of 0.7 % bound.

B5: SEQ ID NO: 5 RNA aptamer (ssRNA)
RNA: GGGAGAAUUCCGACCAGAAGUUCGAUACGCCGUGGGGUGACGUUGGCUACCUUUCCUCUCUCCUCCUUCUUCU
As to B5, the binding signal is 0.9 % bound in data set [8] and 0.6 % bound in data set [7].
